Values quoted from earlier work, collected in article PMC4732575.

Experiments:
CD36 (Homo sapiens) = CD36 (Homo sapiens) (UniProt P16671)
LDLR (Homo sapiens) = LDLR (Homo sapiens) (UniProt P01130)
LDLR (Homo sapiens), sequence (P01130 22-788): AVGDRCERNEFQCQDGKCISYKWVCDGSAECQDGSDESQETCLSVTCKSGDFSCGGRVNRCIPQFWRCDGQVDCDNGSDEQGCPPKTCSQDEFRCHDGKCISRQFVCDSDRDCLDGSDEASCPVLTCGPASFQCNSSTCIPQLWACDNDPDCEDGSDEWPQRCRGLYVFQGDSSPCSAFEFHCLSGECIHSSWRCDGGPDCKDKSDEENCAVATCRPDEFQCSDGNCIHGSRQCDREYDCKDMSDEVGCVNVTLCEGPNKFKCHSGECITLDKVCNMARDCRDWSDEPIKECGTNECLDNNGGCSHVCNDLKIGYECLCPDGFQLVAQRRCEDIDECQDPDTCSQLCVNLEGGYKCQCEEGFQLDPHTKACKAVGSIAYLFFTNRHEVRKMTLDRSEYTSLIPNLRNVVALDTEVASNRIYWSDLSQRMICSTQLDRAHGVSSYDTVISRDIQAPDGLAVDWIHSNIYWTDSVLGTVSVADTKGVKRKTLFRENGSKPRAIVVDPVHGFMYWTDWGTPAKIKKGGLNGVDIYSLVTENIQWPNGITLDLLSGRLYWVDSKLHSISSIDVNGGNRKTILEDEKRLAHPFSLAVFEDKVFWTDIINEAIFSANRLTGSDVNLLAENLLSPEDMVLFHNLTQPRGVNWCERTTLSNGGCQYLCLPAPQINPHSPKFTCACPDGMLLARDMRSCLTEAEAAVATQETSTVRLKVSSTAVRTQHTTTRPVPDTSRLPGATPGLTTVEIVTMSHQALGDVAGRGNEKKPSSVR

PCSK9, sequence (Q8NBP7 153-692): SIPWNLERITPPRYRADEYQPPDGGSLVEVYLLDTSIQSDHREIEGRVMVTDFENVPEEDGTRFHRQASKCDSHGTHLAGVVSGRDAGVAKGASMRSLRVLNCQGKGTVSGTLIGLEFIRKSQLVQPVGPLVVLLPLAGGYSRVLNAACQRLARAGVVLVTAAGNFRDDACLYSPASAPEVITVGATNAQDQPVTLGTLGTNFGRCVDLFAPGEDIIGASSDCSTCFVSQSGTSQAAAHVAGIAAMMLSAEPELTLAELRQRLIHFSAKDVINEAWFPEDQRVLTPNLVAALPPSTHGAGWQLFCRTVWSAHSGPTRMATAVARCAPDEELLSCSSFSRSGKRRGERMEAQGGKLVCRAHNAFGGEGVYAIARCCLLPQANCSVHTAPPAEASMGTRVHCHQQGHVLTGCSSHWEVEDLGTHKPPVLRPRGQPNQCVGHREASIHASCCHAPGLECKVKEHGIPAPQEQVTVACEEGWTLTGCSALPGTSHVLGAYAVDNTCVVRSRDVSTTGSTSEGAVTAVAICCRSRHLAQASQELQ
CD36 (Homo sapiens), sequence (P16671 2-472): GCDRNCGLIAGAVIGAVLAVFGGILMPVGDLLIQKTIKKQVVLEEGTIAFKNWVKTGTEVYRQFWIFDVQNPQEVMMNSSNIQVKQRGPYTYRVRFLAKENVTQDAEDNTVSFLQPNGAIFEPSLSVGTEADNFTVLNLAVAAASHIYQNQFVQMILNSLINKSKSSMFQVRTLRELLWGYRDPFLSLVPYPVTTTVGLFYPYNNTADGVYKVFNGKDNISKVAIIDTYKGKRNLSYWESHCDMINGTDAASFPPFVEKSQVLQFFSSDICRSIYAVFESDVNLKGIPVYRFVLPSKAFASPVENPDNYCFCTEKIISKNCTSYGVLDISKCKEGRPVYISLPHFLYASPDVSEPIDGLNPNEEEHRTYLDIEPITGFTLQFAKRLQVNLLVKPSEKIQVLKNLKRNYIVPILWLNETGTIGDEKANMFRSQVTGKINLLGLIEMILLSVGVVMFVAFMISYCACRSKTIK

PCSK9 (from UniProt Q8NBP7)
Kd (CD36 (Homo sapiens)): 1000 nM
Kd (LDLR (Homo sapiens)): 1000 nM
